The text below walks through data of paper doi:10.1101/2021.04.03.438258.

For this assay, the target named is SARS-CoV-2 HexaPro S (SARS-CoV-2). Put plainly: cryo-EM structure.

By stoichiometry N is commonly meant a count of units in the complex or per binding partner. Substance “SARS-CoV-2 HexaPro S (domain or fragment)” had a stoichiometry N of 3.
